Target: insulin (fully disulfide-bonded heterodimeric insulin)

Row | Protein | activity in the insulin assay as compared to unreacted reduced C35STRX | insulin disulfide bond reduction activity
1 | Azido-C35STRX (C35STRX with azido-PEG linkers on Lys residues, reduced) (protein) MVKQIESKTAFQEALDAAGDKLVVVDFSATWCGPSKMIKPFFHSLSEKYSNVIFLEVDVDDCQDVASECEVKCMPTFQFFKKGQKVGEFSGANKEKLEATINELV | the conjugated material retained about 33% of its activity in the insulin assay as compared to unreacted reduced C35STRX | 
2 | native human thioredoxin-1 (TRX) (protein) MVKQIESKTAFQEALDAAGDKLVVVDFSATWCGPCKMIKPFFHSLSEKYSNVIFLEVDVDDCQDVASECEVKCMPTFQFFKKGQKVGEFSGANKEKLEATINELV |  | GSH is capable of restoring insulin disulfide bond reduction activity to oxidized TRX (FIG. 1)

Reference: US20210213134
